B1: FA-linked dimeric ligand 3 (peptide)
peptide: {Stearoyl-GABA-NPEG4}-IETAV
modifications: not fully specified; reading uncertain; also: dimer: two chains joined at N-termini through NPEG4
notes: Synthetic dimer NPEG4(IETAV)2 with fatty acid on the linker nitrogen; also called compound 3
B2: FA-linked dimeric ligand 7 (peptide)
peptide: {Stearoyl-γGlu-NPEG4}-IETAV
modifications: not fully specified; reading uncertain; also: dimer: two chains joined at N-termini through NPEG4
notes: Synthetic dimer NPEG4(IETAV)2 with fatty acid on the linker nitrogen; also called compound 7
B3: FA-linked dimeric ligand 4 (peptide)
peptide: {C17:0‑COOH acyl-GABA-NPEG4}-IETAV
modifications: not fully specified; reading uncertain; also: dimer: two chains joined at N-termini through NPEG4
notes: Synthetic dimer NPEG4(IETAV)2 with fatty acid on the linker nitrogen; also called compound 4
B4: FA-linked dimeric ligand 13 (peptide)
peptide: {Stearoyl-GABA-NPEG4}-IETDV
modifications: not fully specified; reading uncertain; also: dimer: two chains joined at N-termini through NPEG4
notes: IETDV analogue of compound 3, synthesized analogously to 1-12; also called compound 13
B5: FA-linked dimeric ligand 11 (peptide)
peptide: {Stearoyl-Ava-NPEG4}-IETAV
modifications: not fully specified; reading uncertain; also: dimer: two chains joined at N-termini through NPEG4, linker taken from rows above (blank cell)
notes: Synthetic dimer NPEG4(IETAV)2 with fatty acid on the linker nitrogen; also called compound 11
B6: FA-linked dimeric ligand 12 (peptide)
peptide: {C17:0‑COOH acyl-Ava-NPEG4}-IETAV
modifications: not fully specified; reading uncertain; also: dimer: two chains joined at N-termini through NPEG4, linker taken from rows above (blank cell)
notes: Synthetic dimer NPEG4(IETAV)2 with fatty acid on the linker nitrogen; also called compound 12
B7: FA-linked dimeric ligand 8 (peptide)
peptide: {C17:0‑COOH acyl-γGlu-NPEG4}-IETAV
modifications: not fully specified; reading uncertain; also: dimer: two chains joined at N-termini through NPEG4, linker taken from rows above (blank cell)
notes: Synthetic dimer NPEG4(IETAV)2 with fatty acid on the linker nitrogen; also called compound 8
B8: FA-linked dimeric ligand 9 (peptide)
peptide: IETAV
modifications: not fully specified; also: dimer: N-termini of two peptides joined through NPEG4 linker
notes: Synthetic dimer NPEG4(IETAV)2 with fatty acid on the linker nitrogen; also called compound 9
B9: UCCB01-125 (peptide)
peptide: IETAV
modifications: also: dimer: two peptides joined by a linker, no fatty acid
notes: also called dimeric ligand UCCB01-125
B10: FA-linked dimeric ligand 10 (peptide)
peptide: {C11:0‑COOH acyl-Ava-NPEG4}-IETAV
modifications: not fully specified; reading uncertain; also: dimer: two chains joined at N-termini through NPEG4, linker taken from row above (blank cell)
notes: Synthetic dimer NPEG4(IETAV)2 with fatty acid on the linker nitrogen; also called compound 10
B11: FA-linked dimeric ligand 2 (peptide)
peptide: {C11:0‑COOH acyl-GABA-NPEG4}-IETAV
modifications: not fully specified; reading uncertain; also: dimer: two chains joined at N-termini through NPEG4, linker taken from row above (blank cell)
notes: Synthetic dimer NPEG4(IETAV)2 with fatty acid on the linker nitrogen; also called compound 2
B12: FA-linked dimeric ligand 5 (peptide)
peptide: {Lauroyl-γGlu-NPEG4}-IETAV
modifications: not fully specified; reading uncertain; also: dimer: two chains joined at N-termini through NPEG4
notes: Synthetic dimer NPEG4(IETAV)2 with fatty acid on the linker nitrogen; also called compound 5
B13: FA-linked dimeric ligand 6 (peptide)
peptide: {C11:0‑COOH acyl-γGlu-NPEG4}-IETAV
modifications: not fully specified; reading uncertain; also: dimer: two chains joined at N-termini through NPEG4, linker taken from row above (blank cell)
notes: Synthetic dimer NPEG4(IETAV)2 with fatty acid on the linker nitrogen; also called compound 6
B14: FA-linked dimeric ligand 1 (peptide)
peptide: {Lauroyl-GABA-NPEG4}-IETAV
modifications: not fully specified; reading uncertain; also: dimer: two chains joined at N-termini through NPEG4
notes: Synthetic dimer NPEG4(IETAV)2 with fatty acid on the linker nitrogen; also called compound 1

*1 amine or outer side, *2 acyl side, *3 side chain or, on linkers, in order; H or OH if unused. Where no end group is shown, it is not given here. The star is where a group is joined. γGlu = O=C(O)[C@H](CCC(=O)[*:2])N[*:1]; Stearoyl = CCCCCCCCCCCCCCCCCC(=O)*; Lauroyl = CCCCCCCCCCCC(=O)*; NPEG4 = not defined here; Ava = NCCCCC(=O)O; GABA = NCCCC(=O)O

In general, Kd refers to a measure of binding affinity in units of concentration. Read a high Kd as a looser complex.

T2 sequence (P78352 61-249 limits assumed): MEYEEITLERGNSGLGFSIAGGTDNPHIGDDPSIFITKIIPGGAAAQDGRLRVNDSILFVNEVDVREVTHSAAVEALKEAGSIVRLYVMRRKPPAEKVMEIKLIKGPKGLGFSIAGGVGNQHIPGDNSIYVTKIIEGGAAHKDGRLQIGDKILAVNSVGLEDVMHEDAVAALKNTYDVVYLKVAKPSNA

One assay deals with T1, Human Serum Albumin (human, UniProt P02768 25-609).
T1 construct: Bought reagent; also called HSA
Kind of assay: Transil XL HSA binding kit (immobilized HSA), unbound compound by RP-HPLC.
Method: (§1) The assay kit consisted of prefilled wells with increasing concentrations of immobilized HSA as well as two control wells without HSA. The HSA had been immobilized in a random fashion to ensure that all binding sites on HSA were available. To conduct the assay, the wells were incubated with a known concentration of the tested compounds, and the unbound amount of compound was quantified using analytical RP-HPLC (C8 column). The fraction of unbound drug (fᵤ) for each data point was calculated from the RP-HPLC data by comparison to a control sample without HSA.
B1 had a Kd of 4.8 µM.

With B2, the Kd was found to be 6.8 µM.

Molecule B3 gave a Kd of 19.4 µM.

B4 returned a Kd of 83 µM.

The next assay concerns the target T2, PSD-95 PDZ1-2 (UniProt P78352 61-249, limits assumed).
T2 construct: domain: PDZ1-2; also called PDZ1-2 of PSD-95
Kind of assay: FP competition, TBS + 1% HSA.
Method: (§2) The FP values were fitted to a one site competition (variable slope) model in GraphPad Prism. […] The modified FP assay was conducted as described above with 1% HSA in the assay.
The synthesized FA-linked dimeric ligands were evaluated for their affinity to PSD-95 PDZ1-2 in the FP assay.
As to B5, the “fold affinity loss in TBS+HSA” value is 50 fold and the “fold lower apparent affinity than the dimeric ligands linked to the shorter FAs (C12:0 or C11:0-COOH)” value was more than 50 fold.

B1: the “fold affinity loss in TBS+HSA” value was 50 fold and the “fold lower apparent affinity than the dimeric ligands linked to the shorter FAs (C12:0 or C11:0-COOH)” value is more than 50 fold.

For B2, the “fold affinity loss in TBS+HSA” value was found to be 50 fold and the “fold lower apparent affinity than the dimeric ligands linked to the shorter FAs (C12:0 or C11:0-COOH)” value was more than 50 fold.

As for B3, the “fold lower apparent affinity than the dimeric ligands linked to the shorter FAs (C12:0 or C11:0-COOH)” value was more than 50 fold.

As to B6, the “fold lower apparent affinity than the dimeric ligands linked to the shorter FAs (C12:0 or C11:0-COOH)” value was more than 50 fold.

With B7, the “fold lower apparent affinity than the dimeric ligands linked to the shorter FAs (C12:0 or C11:0-COOH)” value was more than 50 fold.

The next assay concerns the target T2, PSD-95 PDZ1-2. Kind of assay: FP competition, TBS + 1% HSA, corrected for fu (free ligand).
Method: as §2
As for B8, the Ki is 2.6 nM.

Take B9: the Ki amounted to 4.1 nM.

As to B5, the Ki was determined as 16.8 nM.

B10: the Ki worked out at 10.9 nM.

For the molecule B11, the Ki was 5.5 nM.

For the molecule B12, the Ki came out at 2.4 nM.

With B1, the Ki is 57.2 nM.

For B2, the Ki stood at 59.1 nM.

Turning to B3, the Ki is 654 nM.

Regarding B13, the Ki came out at 7 nM.

Take B6: the Ki was determined as 250 nM.

As to B14, the Ki is 3.2 nM.

As for B7, the Ki stood at 669 nM.

Another assay concerns the target T2, PSD-95 PDZ1-2. Kind of assay: FP competition vs dimeric fluorescent probe, TBS + 1% HSA (apparent).
Method: as §2
For B1, the Ki worked out at 1890 nM.

On to B2, for which the Ki is 1390 nM.

Take B3: the Ki stood at 5720 nM.

Another assay has as its target T2, PSD-95 PDZ1-2. Kind of assay: FP competition vs dimeric fluorescent probe, TBS.
Regarding B8, the Ki came out at 20.5 nM.

B9: the Ki was determined as 14.3 nM.

The molecule B5 gave a Ki of 26.5 nM.

In turn, B10 showed a Ki of 13.9 nM.

The molecule B11 registered a Ki of 15.4 nM.

The molecule B12 gave a Ki of 30.2 nM.

In turn, B1 came in with a Ki of 11.1 nM.

For the molecule B2, the Ki came out at 17 nM.

On to B3, for which the Ki is 11.4 nM.

As for B13, the Ki was 33.7 nM.

B6 yielded a Ki of 11.5 nM.

In the case of B14, the Ki was determined as 13.6 nM.

Regarding B7, the Ki is 9.2 nM.

A further assay has as its target T2, PSD-95 PDZ1-2. Kind of assay: FP competition, TBS + 1% HSA, corrected for fu (free ligand). The source holds these as a separate data set.
With B1, the Ki was determined as 57.2 nM.

As for B2, the Ki is 59.1 nM.

For the molecule B3, the Ki was determined as 654 nM.

For a further assay, the target named is T1, Human Serum Albumin. Kind of assay: calculated from KD(HSA) at 150 µM HSA (equation 2).
Regarding B1, the “fu (%), fraction unbound” value was 3.1%.

On to B2, for which the “fu (%), fraction unbound” value was 4.3%.

Take B3: the “fu (%), fraction unbound” value was 11.5%.

As to B4, the “fu (%), fraction unbound” value was 35.6%.

The next assay concerns the target T1, Human Serum Albumin. Kind of assay: Transil XL HSA binding kit (immobilized HSA), unbound compound by RP-HPLC. The source holds these as a separate data set.
Method: as §1
B8: the Kd amounted to 55.7 µM.

B9 yielded a Kd of 154 µM.

Regarding B5, the affinity, expressed as Kd, was 12.7 µM.

For the molecule B10, binding was characterised by a dissociation constant (Kd) of 240 µM.

The molecule B11 registered a Kd of 49.3 µM.

In the case of B12, the affinity, expressed as Kd, was 25.8 µM.

Molecule B1 displayed a Kd of 4.8 µM.

The molecule B2 yielded a Kd of 6.8 µM.

Turning to B3, the Kd was determined as 19.4 µM.

On to B13, for which the Kd stood at 64.6 µM.

Consider B6, for which binding was characterised by a dissociation constant (Kd) of 23.5 µM.

The molecule B14 gave a Kd of 26.6 µM.

Turning to B7, the Kd came out at 34.3 µM.

In the next assay the target is T2, PSD-95 PDZ1-2. Kind of assay: FP competition vs dimeric fluorescent probe, TBS. The source holds these as a separate data set.
B1 showed a Ki of 11.1 nM.

As to B2, the Ki amounted to 17 nM.

As for B3, the Ki was found to be 11.4 nM.

A further assay concerns the target T2, PSD-95 PDZ1-2. Kind of assay: FP competition vs dimeric fluorescent probe, TBS + 1% HSA (apparent). The source holds these as a separate data set.
As to B8, the Ki came to 13.4 nM.

B9: the Ki came out at 9.7 nM.

Take B5: the Ki came to 1890 nM.

For B10, the Ki worked out at 18.5 nM.

As for B11, the Ki came to 27.9 nM.

With B12, the Ki stood at 24 nM.

For B1, the Ki amounted to 1890 nM.

For B2, the Ki turned out to be 1390 nM.

As for B3, the Ki worked out at 5720 nM.

B13: the Ki is 26.4 nM.

As for B6, the Ki was 2930 nM.

As to B14, the Ki amounted to 27.2 nM.

With B7, the Ki stood at 3590 nM.

For another assay, the target named is T1, Human Serum Albumin. Kind of assay: calculated from KD at 588 µM HSA (equation 2).
Method: as §1
For the molecule B8, the “fb (%), fraction bound to HSA” value is 91.4%.

Turning to B9, the “fb (%), fraction bound to HSA” value was 77.6%.

As to B5, the “fb (%), fraction bound to HSA” value is 97.9%.

Consider B10, for which the “fb (%), fraction bound to HSA” value was 71%.

Regarding B11, the “fb (%), fraction bound to HSA” value was 92.3%.

With B12, the “fb (%), fraction bound to HSA” value is 95.8%.

On to B1, for which the “fb (%), fraction bound to HSA” value was 99.2%.

Consider B2, for which the “fb (%), fraction bound to HSA” value is 98.9%.

For the molecule B3, the “fb (%), fraction bound to HSA” value was 96.5%.

As to B13, the “fb (%), fraction bound to HSA” value was 90.1%.

Turning to B6, the “fb (%), fraction bound to HSA” value was 96.2%.

As for B14, the “fb (%), fraction bound to HSA” value was 95.7%.

Take B7: the “fb (%), fraction bound to HSA” value is 94.5%.

Another assay addresses T1, Human Serum Albumin. Kind of assay: calculated from KD(HSA) at 150 µM HSA (equation 2). The source holds these as a separate data set.
In the case of B8, the “fu (%), fraction unbound” value is 27.1%.

For the molecule B9, the “fu (%), fraction unbound” value is 50.7%.

With B5, the “fu (%), fraction unbound” value was 7.8%.

As to B10, the “fu (%), fraction unbound” value was 61.5%.

Consider B11, for which the “fu (%), fraction unbound” value is 24.7%.

Consider B12, for which the “fu (%), fraction unbound” value is 14.7%.

Consider B1, for which the “fu (%), fraction unbound” value is 3.1%.

For B2, the “fu (%), fraction unbound” value is 4.3%.

Take B3: the “fu (%), fraction unbound” value is 11.5%.

For B13, the “fu (%), fraction unbound” value is 30.1%.

Turning to B6, the “fu (%), fraction unbound” value was 8.3%.

For B14, the “fu (%), fraction unbound” value was 15.1%.

On to B7, for which the “fu (%), fraction unbound” value was 18.6%.

Source of the values: US20160303245A1 (UNIVERSITY OF COPENHAGEN, published 2016).
